# Data taken from patent US20230416329A1 (INSTITUTE OF MATERIA MEDICA CHINESE ACADEMY OF MEDICAL …, published 2023).
# Bridge positions count the residues as written; N and C are the ends. Ends that are not written are not given here.
# Molecular target: bovine trypsin (bovine, UniProt P00760 24-246)
# Assay: trypsin inhibition, BApNA substrate
# Procedure: The substrates N-succinyl-Ala-Ala-Pro-Phe-p-nitroaniline (AAPFpNA), Nα—Benzoyl-L-arginine-4-nitroaniline hydrochloride (BApNA) and N-succinyl-[…] (AAApNA) are used in competitive binding reaction to determine the inhibitory activities against α-chymotrypsin, bovine trypsin, and porcine pancreatic elastase, respectively. Experiments for α-chymotrypsin and bovine trypsin inhibition were measured in 20 mM CaCl₂, 50 mM Tris-HCl buffer (pH 7.8), and that for porcine elastase inhibition was measured in 50 mM Tris-HCl buffer (pH 8.0). The concentration of the peptide was measured using optical density (OD) at 280 nm. The Michaelis constant (Kₘ) of the enzyme hydrolysis substrate is calculated from the initial rate of substrate hydrolysis at 405 nm. The absorbance value of the substrate was measured at 405 nm after complete hydrolysis. All data were processed using nonlinear regression.
# (1) Added a total 190 μL of reaction buffer (20 mM CaCl₂ and 50 mM Tris-HCl, pH 7.8) along with different concentrations of anti-trypsin peptides (BTs) into the pre-cooled 96-well plate, followed by preheating at 37° C., and spined down at 500 rpm for 5 min. Next added 10 μL of 1 μM trypsin, incubated at 37° C., and then spined down at 500 rpm for 10 min. Finally, added 5 μL of 50 mM BApNA, and mixed by centrifugation at 500 rpm for 1 min. […] The experiment was performed in triplicate. The blank control only contained the reaction buffer and the substrate as the minimum absorption value (Min OD_{405 nm}). The negative control only contained the reaction buffer, the enzyme and the substrate as the maximum absorption value (Max OD_{405 nm}). […] (2) In the reaction system of 205 μL, the final concentrations of trypsin and BApNA were 50 nM and 1.22 mM, respectively. [0456] (3) Data statistics
# bovine trypsin, sequence (P00760 24-246): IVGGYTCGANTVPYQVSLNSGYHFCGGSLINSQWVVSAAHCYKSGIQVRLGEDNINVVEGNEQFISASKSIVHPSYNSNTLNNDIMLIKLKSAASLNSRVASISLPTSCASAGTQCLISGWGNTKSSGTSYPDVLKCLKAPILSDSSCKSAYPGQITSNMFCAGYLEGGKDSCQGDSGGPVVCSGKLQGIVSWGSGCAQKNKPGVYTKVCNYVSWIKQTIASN
IC50,Ki,fold decrease in inhibitory activity compared to BT9,Binder
160 nM,30 nM,,CGRATKSIPPICFPD (disulfide 1-12 (inferred)) [BT5]
230 nM,50 nM,,CGAATKSIPPICFPD (disulfide 1-12 (inferred)) [BT7]
290 nM,60 nM,,CGSATKSIPPICFPD (disulfide 1-12 (inferred)) [BT6]
70 nM,10 nM,,CGRATKSIPPICF (disulfide 1-12 (inferred)) [BT9]
580 nM,120 nM,~12 fold,CGRATRSIPPICF (disulfide 1-12 (inferred)) [BT17]
4490 nM,960 nM,,CGRATRSIPPACF (disulfide 1-12 (inferred)) [BT15]
39400 nM,8380 nM,,CGRATRSIPPICY (disulfide 1-12 (inferred)) [BT18]
2500 nM,530 nM,,CGRAAKSIPPICF (disulfide 1-12 (inferred)) [BT26]
180 nM,40 nM,,CGRLTKSIPPICF (disulfide 1-12 (inferred)) [BT48]
970 nM,210 nM,,CGTATKSIPPICF (disulfide 1-12 (inferred)) [BT25]
910 nM,190 nM,,CGRATKSLPAICF (disulfide 1-12 (inferred)) [BT16]
280 nM,60 nM,,CGRATKAIPPICF (disulfide 1-12 (inferred)) [BT27]
33900 nM,7220 nM,,CGTATKSIPPICN (disulfide 1-12 (inferred)) [BT24]
410 nM,90 nM,,CGRVTKSIPPICF (disulfide 1-12 (inferred)) [BT51]
4680 nM,1000 nM,,CGRATRAIPPICF (disulfide 1-12 (inferred)) [BT22]
18100 nM,3850 nM,,CGRATRSAPPICF (disulfide 1-12 (inferred)) [BT21]
110 nM,20 nM,,CGRATKSIPAICF (disulfide 1-12 (inferred)) [BT10]
500 nM,110 nM,,CGRITKSIPPICF (disulfide 1-12 (inferred)) [BT49]
50 nM,10 nM,,CGRSTKSIPPICF (disulfide 1-12 (inferred)) [BT47]
43400 nM,9250 nM,,CGRATRSIPPICA (disulfide 1-12 (inferred)) [BT19]
